Values joined by “and” are separate entries in the source; they are usually repeats but may differ in a detail not shown here. Identical values can stand only once.
Tests used:
[1] = target: bZIP1-VENUSN (m29) signal relative to bZIP11-CFPN (m30) signal; assay: multi-color BiFC in N. tabacum leaves, confocal microscopy; settings: co-transformed with mCherry-tagged AKIN10; 115-118 nuclei; value is the median of the box plot; parent: est. 2.4; read off a plot
[2] = target: bZIP63 in which S29 or all three serines were mutated to alanine; assay: two-hybrid; protoplast two-hybrid (P2H) in Arabidopsis leaf protoplasts; GAL4-AD and GAL4-BD fusions, GAL-UAS4::GUS reporter normalised to 35S::NAN; without and with co-transformation of AKIN10; 16 hr

Row | other: VENUS/CFP (norm.) [1] | % of the signal with wt bZIP63 [2] | Molecule
1 | 1 |  | bZIP63 (split-CFP BiFC fusion) (from UniProt B9DGI8) S29A; S294A; S300A
2 |  | 30% and 40% | bZIP63 (protoplast two-hybrid fusion) (natural protein) MEKVFSDEEISGNHHWSVNGMTSLNRSASEWAFNRFIQESSAAADDGESTTACGVSVSSPPNVPVDSEEYRAFLKSKLNLACAAVAMKRGTFIKPQDTSGRSDNGGANESEQASLASSKATPMMSSAITSGSELSGDEEEADGETNMNPTNVKRVKRMLSNRESARRSRRRKQAHLSELETQVSQLRVENSKLMKGLTDVTQTFNDASVENRVLKANIETLRAKVKMAEETVKRLTGFNPMFHNMPQIVSTVSLPSETSNSPDTTSSQVTTPEIISSGNKGKALIGCKMNRTASMRRVESLEHLQKRIRSVGDQ
3 |  | 30% and 40% | bZIP11 (protoplast two-hybrid fusion) (natural protein) MESSSSGTTSSTIQTSSGSEESLMEQRKRKRMLSNRESARRSRMKKQKLLDDLTAQVNHLKKENTEIVTSVSITTQHYLTVEAENSVLRAQLDELNHRLQSLNDIIEFLDSSNNNNNNNMGMCSNPLVGLECDDFFVNQMNMSYIMNQPLMASSDALMY
